Experimental findings from patent US20050119464 are described below.

The target of data set [1] is the different subclasses of IgG.
For data set [2], the target named is T1, cystatin C from mouse, P21460.
T1 chain: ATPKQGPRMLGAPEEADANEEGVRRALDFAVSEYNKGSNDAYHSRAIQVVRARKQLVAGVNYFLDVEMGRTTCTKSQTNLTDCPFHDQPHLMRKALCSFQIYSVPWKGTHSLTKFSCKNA

Data set [3] deals with synthetic peptide homologous to amino acids 234 to 241 of human IgG.
For a further data set, the target named is T2, H-kininogen, P01042.
T2 chain: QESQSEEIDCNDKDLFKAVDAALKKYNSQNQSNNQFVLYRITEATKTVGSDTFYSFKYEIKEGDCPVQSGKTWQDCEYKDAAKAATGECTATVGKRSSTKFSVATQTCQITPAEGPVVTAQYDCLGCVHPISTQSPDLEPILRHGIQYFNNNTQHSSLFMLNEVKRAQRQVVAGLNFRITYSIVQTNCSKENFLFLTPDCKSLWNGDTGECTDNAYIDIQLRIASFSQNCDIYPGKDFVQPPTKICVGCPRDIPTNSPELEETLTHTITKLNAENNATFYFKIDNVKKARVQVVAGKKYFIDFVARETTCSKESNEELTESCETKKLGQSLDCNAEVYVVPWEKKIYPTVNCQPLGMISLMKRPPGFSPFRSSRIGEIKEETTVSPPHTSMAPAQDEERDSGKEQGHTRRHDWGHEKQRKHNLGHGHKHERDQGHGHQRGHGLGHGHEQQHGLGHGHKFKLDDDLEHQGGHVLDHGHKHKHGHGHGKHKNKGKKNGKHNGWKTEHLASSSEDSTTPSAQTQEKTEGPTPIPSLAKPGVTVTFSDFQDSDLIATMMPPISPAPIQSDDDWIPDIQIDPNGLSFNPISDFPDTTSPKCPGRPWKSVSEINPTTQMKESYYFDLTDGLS

The next data set concerns the target T3, cystatin C, P01034.
T3 chain: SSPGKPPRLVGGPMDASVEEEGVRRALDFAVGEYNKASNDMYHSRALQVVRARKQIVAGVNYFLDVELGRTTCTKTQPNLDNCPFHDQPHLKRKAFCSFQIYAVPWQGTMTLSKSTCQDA

The target in data set [4] is T4, cystatin C from rat, P14841.
T4 chain: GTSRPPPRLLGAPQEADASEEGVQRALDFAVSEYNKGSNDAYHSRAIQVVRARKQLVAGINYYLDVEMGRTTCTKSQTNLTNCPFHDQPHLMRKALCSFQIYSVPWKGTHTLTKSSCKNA

The target of data set [5] is Fc-fragment generated by papain cleavage, including 12 amino acids of the hinge region.
The next data set deals with T5, fibrinogen, P02671.
T5 chain 1: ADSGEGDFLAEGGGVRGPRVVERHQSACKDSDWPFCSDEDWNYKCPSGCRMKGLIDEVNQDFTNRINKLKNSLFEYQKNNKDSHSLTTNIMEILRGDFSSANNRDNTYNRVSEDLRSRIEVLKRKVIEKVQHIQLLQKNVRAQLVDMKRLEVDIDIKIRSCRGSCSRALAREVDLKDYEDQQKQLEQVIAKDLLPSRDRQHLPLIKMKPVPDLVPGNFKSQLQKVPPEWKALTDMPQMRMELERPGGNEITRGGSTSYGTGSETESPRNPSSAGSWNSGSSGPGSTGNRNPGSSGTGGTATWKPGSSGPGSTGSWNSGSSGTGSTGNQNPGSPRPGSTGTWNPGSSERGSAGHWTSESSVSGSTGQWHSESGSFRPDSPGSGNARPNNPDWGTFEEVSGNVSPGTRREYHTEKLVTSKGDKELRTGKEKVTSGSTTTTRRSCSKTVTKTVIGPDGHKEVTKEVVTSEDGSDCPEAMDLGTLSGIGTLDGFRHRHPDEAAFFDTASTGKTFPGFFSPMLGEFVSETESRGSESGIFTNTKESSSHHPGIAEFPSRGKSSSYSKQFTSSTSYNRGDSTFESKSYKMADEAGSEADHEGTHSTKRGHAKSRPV
T5 chain 2: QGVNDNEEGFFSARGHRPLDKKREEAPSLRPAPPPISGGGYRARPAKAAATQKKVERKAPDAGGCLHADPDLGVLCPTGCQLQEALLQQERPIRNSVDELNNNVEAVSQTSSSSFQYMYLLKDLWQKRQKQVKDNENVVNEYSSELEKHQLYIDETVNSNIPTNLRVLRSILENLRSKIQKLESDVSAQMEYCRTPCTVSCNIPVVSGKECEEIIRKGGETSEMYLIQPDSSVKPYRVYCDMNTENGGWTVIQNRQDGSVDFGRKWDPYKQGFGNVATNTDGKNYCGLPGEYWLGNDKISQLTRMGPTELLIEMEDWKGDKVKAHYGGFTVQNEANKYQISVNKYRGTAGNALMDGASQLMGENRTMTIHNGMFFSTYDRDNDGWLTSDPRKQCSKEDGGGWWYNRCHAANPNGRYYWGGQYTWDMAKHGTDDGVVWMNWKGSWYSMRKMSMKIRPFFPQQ
T5 chain 3: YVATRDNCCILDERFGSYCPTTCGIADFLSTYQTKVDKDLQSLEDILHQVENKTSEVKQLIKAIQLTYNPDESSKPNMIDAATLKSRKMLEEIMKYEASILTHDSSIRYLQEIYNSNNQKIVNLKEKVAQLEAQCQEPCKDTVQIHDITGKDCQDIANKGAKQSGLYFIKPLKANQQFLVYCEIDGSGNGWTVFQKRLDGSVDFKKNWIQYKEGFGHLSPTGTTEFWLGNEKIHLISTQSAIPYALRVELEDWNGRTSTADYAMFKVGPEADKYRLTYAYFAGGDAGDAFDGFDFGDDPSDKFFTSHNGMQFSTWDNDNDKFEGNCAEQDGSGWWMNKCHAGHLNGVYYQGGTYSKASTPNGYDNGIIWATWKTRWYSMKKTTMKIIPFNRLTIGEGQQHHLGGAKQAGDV

The target in data set [6] is T6, cystatin C from chicken, P01038.
T6 chain: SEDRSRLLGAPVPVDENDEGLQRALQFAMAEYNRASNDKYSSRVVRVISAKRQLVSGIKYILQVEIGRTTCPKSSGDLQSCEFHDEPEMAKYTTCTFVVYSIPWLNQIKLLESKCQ

The next data set has as its target T7, cystatin D, P28325.
T7 chain: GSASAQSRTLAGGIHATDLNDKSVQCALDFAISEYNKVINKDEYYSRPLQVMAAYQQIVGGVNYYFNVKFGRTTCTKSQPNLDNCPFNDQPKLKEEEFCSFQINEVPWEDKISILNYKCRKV

The target in the next data set is T8, Z-LVG-CHN2.
T8 chain: LVG

The target in data set [7] is T9, antimicrobial peptide LL-37, P49913.
T9 chain: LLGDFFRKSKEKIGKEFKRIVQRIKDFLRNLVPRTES

Chain of α 1-antitrypsin, P01009 (P01009 whole entry, looked up): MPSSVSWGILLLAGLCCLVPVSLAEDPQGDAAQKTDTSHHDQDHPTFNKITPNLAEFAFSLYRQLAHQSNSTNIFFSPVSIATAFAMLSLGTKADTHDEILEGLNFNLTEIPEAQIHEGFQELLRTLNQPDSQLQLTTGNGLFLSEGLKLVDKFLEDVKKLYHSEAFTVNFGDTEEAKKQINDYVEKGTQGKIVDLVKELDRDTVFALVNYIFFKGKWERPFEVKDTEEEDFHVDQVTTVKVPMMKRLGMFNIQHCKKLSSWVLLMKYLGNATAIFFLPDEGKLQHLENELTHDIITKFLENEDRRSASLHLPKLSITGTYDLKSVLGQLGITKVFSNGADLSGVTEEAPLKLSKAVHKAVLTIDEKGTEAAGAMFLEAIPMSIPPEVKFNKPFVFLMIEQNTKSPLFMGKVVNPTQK
Chain of lactoferrin, P02788 (P02788 20-710): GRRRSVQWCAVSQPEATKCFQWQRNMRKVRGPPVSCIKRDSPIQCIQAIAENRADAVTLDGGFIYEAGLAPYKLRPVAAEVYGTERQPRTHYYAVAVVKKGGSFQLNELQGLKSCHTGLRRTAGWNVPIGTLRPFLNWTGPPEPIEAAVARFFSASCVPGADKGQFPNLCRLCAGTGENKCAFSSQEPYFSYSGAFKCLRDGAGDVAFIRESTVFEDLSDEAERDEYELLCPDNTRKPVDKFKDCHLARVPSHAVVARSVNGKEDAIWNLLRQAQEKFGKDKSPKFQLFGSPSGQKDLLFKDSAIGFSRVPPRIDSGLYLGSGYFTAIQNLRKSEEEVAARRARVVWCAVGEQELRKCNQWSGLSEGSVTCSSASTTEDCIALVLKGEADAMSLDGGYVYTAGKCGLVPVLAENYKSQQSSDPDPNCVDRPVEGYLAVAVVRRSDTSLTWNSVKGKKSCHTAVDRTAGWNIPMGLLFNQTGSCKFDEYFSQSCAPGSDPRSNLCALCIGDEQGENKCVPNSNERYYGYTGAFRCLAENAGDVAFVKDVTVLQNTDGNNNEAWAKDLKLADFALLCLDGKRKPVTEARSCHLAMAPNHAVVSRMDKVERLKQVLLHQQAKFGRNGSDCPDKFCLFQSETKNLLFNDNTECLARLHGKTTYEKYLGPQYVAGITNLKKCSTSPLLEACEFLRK
Chain of fibronectin, P02751 (P02751 other isoform, or with tags, fused parts or gaps): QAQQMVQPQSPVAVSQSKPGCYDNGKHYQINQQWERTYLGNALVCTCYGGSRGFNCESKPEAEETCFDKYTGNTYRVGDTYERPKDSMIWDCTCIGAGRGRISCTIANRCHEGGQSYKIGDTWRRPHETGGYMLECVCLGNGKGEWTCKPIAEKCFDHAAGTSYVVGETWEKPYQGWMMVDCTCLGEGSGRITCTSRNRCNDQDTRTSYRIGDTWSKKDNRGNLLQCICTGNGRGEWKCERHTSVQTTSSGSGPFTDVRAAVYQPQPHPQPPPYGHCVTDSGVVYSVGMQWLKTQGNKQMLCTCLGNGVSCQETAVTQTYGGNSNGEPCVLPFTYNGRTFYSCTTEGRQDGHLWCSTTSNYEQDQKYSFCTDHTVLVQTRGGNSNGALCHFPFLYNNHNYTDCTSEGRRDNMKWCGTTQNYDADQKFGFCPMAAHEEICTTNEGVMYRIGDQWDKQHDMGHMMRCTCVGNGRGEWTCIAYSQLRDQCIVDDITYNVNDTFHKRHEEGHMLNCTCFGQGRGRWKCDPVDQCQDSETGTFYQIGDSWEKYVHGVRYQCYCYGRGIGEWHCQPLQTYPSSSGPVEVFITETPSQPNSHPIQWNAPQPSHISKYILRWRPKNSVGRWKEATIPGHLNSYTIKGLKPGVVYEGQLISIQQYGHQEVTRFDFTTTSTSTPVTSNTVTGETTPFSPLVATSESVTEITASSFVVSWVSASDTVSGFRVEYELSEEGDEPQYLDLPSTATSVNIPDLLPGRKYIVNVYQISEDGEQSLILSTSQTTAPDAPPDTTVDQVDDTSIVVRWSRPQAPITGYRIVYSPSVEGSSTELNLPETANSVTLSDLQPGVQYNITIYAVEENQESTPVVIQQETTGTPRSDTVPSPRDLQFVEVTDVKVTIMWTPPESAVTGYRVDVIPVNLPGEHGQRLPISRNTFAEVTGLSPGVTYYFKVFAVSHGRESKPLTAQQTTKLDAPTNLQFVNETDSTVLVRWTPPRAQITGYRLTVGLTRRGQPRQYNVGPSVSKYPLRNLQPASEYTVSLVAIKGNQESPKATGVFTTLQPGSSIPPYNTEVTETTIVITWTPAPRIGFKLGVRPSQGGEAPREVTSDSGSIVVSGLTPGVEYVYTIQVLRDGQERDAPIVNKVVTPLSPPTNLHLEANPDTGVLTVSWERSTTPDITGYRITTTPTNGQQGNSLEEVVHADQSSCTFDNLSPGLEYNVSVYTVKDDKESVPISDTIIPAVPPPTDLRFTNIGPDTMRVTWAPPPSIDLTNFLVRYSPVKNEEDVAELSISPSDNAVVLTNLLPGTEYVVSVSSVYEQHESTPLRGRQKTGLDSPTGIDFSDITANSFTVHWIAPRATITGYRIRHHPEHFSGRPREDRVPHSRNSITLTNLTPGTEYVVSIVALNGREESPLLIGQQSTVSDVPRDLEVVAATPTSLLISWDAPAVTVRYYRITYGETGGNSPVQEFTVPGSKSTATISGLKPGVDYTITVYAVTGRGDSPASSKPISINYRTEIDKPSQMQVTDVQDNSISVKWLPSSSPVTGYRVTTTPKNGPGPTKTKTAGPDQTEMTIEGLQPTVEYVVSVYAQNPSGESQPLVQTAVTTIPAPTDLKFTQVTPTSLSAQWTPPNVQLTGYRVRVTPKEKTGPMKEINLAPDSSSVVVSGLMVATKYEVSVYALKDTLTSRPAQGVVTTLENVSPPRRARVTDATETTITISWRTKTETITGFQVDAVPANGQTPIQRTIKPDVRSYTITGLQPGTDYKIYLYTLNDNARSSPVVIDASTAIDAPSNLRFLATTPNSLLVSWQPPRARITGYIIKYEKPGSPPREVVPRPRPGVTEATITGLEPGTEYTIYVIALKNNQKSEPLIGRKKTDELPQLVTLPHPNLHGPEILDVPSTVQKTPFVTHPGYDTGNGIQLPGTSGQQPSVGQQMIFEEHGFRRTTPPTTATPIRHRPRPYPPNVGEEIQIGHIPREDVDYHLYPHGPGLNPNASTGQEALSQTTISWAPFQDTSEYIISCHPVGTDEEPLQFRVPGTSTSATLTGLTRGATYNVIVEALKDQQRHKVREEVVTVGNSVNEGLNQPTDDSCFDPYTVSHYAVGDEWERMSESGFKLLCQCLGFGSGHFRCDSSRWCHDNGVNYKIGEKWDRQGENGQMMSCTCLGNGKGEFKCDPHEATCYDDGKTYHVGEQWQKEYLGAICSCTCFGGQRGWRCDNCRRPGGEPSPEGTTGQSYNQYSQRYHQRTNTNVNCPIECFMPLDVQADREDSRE
Chain of transferrin, P02787 (P02787 20-698): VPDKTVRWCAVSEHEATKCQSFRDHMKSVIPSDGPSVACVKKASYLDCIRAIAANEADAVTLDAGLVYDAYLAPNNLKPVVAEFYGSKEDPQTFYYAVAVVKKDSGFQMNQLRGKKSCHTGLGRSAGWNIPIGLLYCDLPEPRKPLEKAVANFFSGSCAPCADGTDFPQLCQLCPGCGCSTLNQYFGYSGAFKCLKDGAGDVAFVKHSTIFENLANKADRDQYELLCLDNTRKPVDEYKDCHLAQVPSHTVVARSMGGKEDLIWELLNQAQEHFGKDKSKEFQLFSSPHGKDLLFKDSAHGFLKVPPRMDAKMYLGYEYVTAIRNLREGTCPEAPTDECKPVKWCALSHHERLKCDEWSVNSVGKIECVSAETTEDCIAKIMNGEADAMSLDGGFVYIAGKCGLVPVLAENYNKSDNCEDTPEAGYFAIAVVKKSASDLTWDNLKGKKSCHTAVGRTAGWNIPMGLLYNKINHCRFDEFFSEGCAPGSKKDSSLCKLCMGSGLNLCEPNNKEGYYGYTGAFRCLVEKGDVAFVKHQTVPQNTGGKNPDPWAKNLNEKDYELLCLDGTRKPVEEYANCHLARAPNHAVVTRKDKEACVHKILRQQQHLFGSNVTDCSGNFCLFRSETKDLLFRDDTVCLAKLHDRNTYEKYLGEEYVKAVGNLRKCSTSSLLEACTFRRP

B1: IdeS (Immunoglobulin G-degrading enzyme of S. pyogenes), purified from culture supernatant of S. pyogenes strain AP1 (protein)
chain: DSFSANQEIRYSEVTPYHVTSVWTKGVTPPANFTQGEDVFHAPYVANQGWYDITKTFNGKDDLLCGAATAGNMLHWWFDQNKDQIKRYLEEHPEKQKINFNGEQMFDVKEAIDTKNHQLDSKLFEYFKEKAFPYLSTKHLGVFPDHVIDMFINGYRLSLTNHGPTPVKEGSKDPRGGIFDAVFTRGDQSKLLTSRHDFKEKNLKEISDLIKKELTEGKALGLSHTYANVRINHVINLWGADFDSNGNLKAIYVTDSDSNASIGMKKYFVGVNSAGKVAISAKEIKEDNIGAQVLGLFTLSTGQDSWNQTN
In the case of B1, the cleavage products result is “No cleavage products could be detected” in the data set with laminin; “No cleavage products could be detected” with albumin, P02768; “No cleavage products could be observed” in [2]; “No cleavage products could be detected” in the data set with H-kininogen, P01042; “No cleavage products could be detected” in the data set with transferrin, P02787; “No cleavage products could be detected” in the data set with whole human plasma. Moreover, the cleavage products entry is listed as “No cleavage products could be detected” in the data set with cystatin C, P01034; “No cleavage products could be observed” in [4]; “No cleavage products could be detected” with lactoferrin, P02788; “No cleavage products could be detected” with fibronectin, P02751; “No cleavage products could be detected” with fibrinogen, P02671; “No cleavage products could be observed” in data set [6]. The cleavage products entry was “No cleavage products could be detected” in the data set with cystatin D, P28325; “No cleavage products could be detected” with α 1-antitrypsin, P01009; “No cleavage products could be detected” with aprotinin, P00974. Besides, the IdeS digestion entry in data set [1] is listed as “all were susceptible for IdeS digestion”. In addition, the “degradation of the peptide” value in data set [3] and in [7] was “did not reveal any degradation of the peptides” each time. Besides, in data set [5], the cleavage entry is reported as “a Fc-fragment generated by papain cleavage, including 12 amino acids of the hinge region is cleaved by IdeS”. The “cleavage of the peptide” value with Z-LVG-CHN2 is recorded as “Neither was the synthetic peptide Z-LVG-CHN2, which inhibits IdeS activity, cleaved by excess IdeS”.
